Measured values reported in article PMC7810883, “Phosphorylation-induced changes in the PDZ domain of Dishevelled 3” (Scientific Reports, 2021).
Non-standard residues stand in square brackets, D forms with d. pS = N[C@@H](COP(=O)(O)O)C(=O)O

How the values were obtained:
[1] = target: T1, PDZ domain of human Dishevelled 3 (DVL3), aa 243-338, S280E (human, UniProt Q92997 243-338, S280E); assay: NMR titration; 1H-15N HSQC of 100 uM 15N-labelled PDZ wt/mutant with increasing amounts of C-terminal peptide (stock 800 uM, up to four-fold over PDZ); 50 mM sodium-phosphate pH 6.5, 50 mM KCl; settings: both partners purified
T1 construct: PDZ domain of human Dishevelled 3 (DVL3), residues 243-338, phosphomimetic mutant S280E; Made by site-directed mutagenesis of pETM11-PDZ; also called PDZ S280E; source: E. coli BL21(DE3), minimal media (15N or 15N,13C labelling), purified (Ni-NTA, TEV, Q-sepharose, SEC); not shown: His6, N-terminal, cleaved
T1 sequence (looked up): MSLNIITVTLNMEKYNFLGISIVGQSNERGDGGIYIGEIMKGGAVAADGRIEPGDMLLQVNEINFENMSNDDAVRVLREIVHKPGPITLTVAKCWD

[2] = target: T2, PDZ domain of human Dishevelled 3 (DVL3), aa 243-338, wild type (human, UniProt Q92997 243-338); assay: as above; settings: both partners purified
T2 construct: PDZ domain of human Dishevelled 3 (DVL3), residues 243-338; Cloned in pETM11; also called PDZ wt; hDvl3 PDZ WT domain; source: E. coli BL21(DE3), minimal media (15N or 15N,13C labelling), purified (Ni-NTA, TEV, Q-sepharose, SEC); not shown: His6, N-terminal, cleaved
T2 sequence (looked up): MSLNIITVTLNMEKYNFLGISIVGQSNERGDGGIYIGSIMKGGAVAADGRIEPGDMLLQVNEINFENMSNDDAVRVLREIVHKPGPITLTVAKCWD

B1: C-terminal DVL peptide consisting of aa 698-716 from DVL3 with phosphorylated pS700 (peptide, UniProt Q92997 698-716, looked up)
peptide: H-RQ[pS]FRMAMGNPSEFFVDVM-OH
notes: C-terminus of human Dishevelled 3 (DVL3), residues 698-716; The phosphorylation at S700 is told only in the methods; also called C-terminal peptide (698-716); C-terminus ligand
B1: binds [1]; binds [2].
